Source: US20110274694

Target: purified Gβγ (G-protein βγ-subunits)

B1: His6-Erk2 (purified, wild-type) (protein)
chain: MAAAAAAGPEMVRGQVFDVGPRYTNLSYIGEGAYGMVCSAYDNLNKVRVAIKKISPFEHQTYCQRTLREIKILLRFRHENIIGINDIIRAPTIEQMKDVYIVQDLMETDLYKLLKTQHLSNDHICYFLYQILRGLKYIHSANVLHRDLKPSNLLLNTTCDLKICDFGLARVADPDHDHTGFLTEYVATRWYRAPEIMLNSKGYTKSIDIWSVGCILAEMLSNRPIFPGKHYLDQLNHILGILGSPSQEDLNCIINLKARNYLLSLPHKNKVPWNRLFPNADSKALDLLDKMLTFNPHKRIEVEQALAHPYLEQYYDPSDEPIAEAPFKFDMELDDLPKEKLKELIFEETARFQPGYRS
- phosphorylation of Erk2 ([32P]-autoradiography): caused increased phosphorylation of Erk2 to an extent similar to that caused by Mek*
